Experimental findings from patent publication US20230416388A1 (Bristol-Myers Squibb, published 2023) are described below.

Test [1] deals with mouse GITR (on activated mouse T cells) (mouse) (UniProt O35714). The test is described as follows: in vitro binding on activated mouse CD4+ T cells.
For test [2] the target is unchanged. Kind of test: in vitro binding on activated mouse CD8+ T cells.
In test [3] the target is T1, human GITR (on activated human T cells) (human, UniProt Q9Y5U5 26-241).
T1 construct: also called glucocorticoid-inducible TNF receptor; TNFRSF18
T1 sequence: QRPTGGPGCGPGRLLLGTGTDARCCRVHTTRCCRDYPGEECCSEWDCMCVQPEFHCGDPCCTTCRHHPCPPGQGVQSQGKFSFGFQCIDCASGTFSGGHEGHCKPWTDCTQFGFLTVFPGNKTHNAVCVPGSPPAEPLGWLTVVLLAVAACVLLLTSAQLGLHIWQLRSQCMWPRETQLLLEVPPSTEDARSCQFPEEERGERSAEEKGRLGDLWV
The test is described as follows: in vitro binding on activated human CD4+ T cells.

Test [4] concerns the target T1, human GITR (on activated human T cells). Kind of test: in vitro binding on activated human CD8+ T cells.

mouse GITR (on activated mouse T cells) (mouse), sequence (O35714 20-228): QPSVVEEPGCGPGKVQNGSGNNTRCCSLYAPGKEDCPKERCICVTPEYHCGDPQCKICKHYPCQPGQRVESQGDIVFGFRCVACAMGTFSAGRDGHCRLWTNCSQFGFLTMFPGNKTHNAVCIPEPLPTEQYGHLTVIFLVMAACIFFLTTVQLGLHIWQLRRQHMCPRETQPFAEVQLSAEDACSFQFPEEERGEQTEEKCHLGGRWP

DTA1-mIgG2a (antibody): the EC50 (in general, the concentration that produces a half-maximal response) is 0.14 nM in test [1] and 0.17 nM in test [2].

Take DTA1-mIgG2b (antibody): the EC50 in test [1] and in test [2] was 0.33 nM throughout.

B1: 28F3.IgG1 (antibody, V domains shown)
VH: QVQLVESGGGVVQPGRSLRLSCAASGFTFSSYGMHWVRQAPGKGLEWVAVIWYEGSNKYYADSVKGRFTISRDNSKNTLYLQMNSLRAEDTAVYYCARGGSMVRGDYYYGMDVWGQGTTVTVSS
VL: AIQLTQSPSSLSASVGDRVTITCRASQGISSALAWYQQKPGKAPKLLIYDASSLESGVPSRFSGSGSGTDFTLTISSLQPEDFATYYCQQFNSYPYTFGQGTKLEIKR
notes: Fully human IgG1 agonist antibody to GITR; also called GITR Ab; anti-GITR agonist Ab 28F3.IgG1
As to B1, the 50% effective concentration (EC50) was 0.37 nM in test [3] and 0.44 nM in test [4].
